The source of these data is PMC6683731 (The Journal of Cell Biology, 2019).

Like-named read-outs stand apart in the source and are kept apart here.

Holding throughout (experiment): pull-down
For test [1], the target named is T1, cohesin subcomplex containing SA2 (residues 80–1060) and Scc1 (residues 281–420) (UniProt Q8N3U4 80-1060; O60216 281-420).
T1 sequence (looked up) 1: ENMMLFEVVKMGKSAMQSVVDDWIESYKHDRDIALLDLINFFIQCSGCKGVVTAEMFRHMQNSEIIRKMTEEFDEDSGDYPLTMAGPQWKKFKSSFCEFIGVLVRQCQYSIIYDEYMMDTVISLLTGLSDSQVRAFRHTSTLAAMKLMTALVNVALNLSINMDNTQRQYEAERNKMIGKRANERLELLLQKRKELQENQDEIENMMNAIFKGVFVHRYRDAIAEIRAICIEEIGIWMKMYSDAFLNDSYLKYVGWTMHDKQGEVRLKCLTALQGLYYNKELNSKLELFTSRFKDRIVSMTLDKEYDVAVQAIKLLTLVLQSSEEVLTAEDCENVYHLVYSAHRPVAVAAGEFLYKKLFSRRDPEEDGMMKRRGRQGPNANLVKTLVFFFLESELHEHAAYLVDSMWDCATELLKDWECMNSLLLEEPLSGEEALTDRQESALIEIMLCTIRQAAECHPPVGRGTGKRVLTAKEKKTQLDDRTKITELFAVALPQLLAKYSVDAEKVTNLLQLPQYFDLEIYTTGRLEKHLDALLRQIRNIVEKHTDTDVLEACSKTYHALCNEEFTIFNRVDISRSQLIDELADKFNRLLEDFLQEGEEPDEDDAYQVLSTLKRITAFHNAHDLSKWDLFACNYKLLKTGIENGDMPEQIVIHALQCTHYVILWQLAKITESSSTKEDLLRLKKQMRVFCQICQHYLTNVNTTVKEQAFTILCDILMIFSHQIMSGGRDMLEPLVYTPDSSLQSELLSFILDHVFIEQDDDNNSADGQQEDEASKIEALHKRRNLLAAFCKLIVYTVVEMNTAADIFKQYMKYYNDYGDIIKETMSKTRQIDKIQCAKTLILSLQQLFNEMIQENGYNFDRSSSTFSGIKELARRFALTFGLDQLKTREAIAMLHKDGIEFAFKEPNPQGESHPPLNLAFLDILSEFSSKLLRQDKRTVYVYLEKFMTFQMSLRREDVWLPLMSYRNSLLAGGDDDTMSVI
T1 sequence (looked up) 2: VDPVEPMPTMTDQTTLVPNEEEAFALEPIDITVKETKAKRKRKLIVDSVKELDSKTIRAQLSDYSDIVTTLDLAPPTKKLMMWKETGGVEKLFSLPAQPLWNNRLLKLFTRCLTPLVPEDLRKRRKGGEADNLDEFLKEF

Test [2] has as its target T2, His6-SET (full length) (human, UniProt Q01105 1-290).
Test [3] deals with T1, cohesin subcomplex containing SA2 …. This is another data set of the same source.
The target of test [4] is T2, His6-SET (full length). The source holds these as a separate data set.

T2 sequence (Q01105 whole entry): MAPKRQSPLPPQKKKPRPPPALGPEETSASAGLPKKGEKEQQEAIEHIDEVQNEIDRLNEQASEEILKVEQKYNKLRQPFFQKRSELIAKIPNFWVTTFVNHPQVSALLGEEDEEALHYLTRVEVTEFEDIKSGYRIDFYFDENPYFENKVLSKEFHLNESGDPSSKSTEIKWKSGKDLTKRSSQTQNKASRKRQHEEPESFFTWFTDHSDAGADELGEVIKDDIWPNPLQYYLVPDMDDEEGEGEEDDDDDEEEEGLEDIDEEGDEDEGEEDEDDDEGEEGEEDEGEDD

B1: GST-Sgo1 ΔSET (241–387 depleted of 281–310) (domain or fragment, human, UniProt Q5FBB7 241-387, looked up)
chain: VQHNACQWSKDQVNLSPKLIQPGTFTKTKEDILESKSEQTENKSENKKTVPQKKMHKSVSSNDAYNFNLEEGVHLTPFRQKVSNDSNREENNESEVSLCESSGSGDDSDDLYLPTCK
As for B1, the binding result in test [1] is on record as “binds”.

B2: GST-Sgo1 fragment 200–353 (domain or fragment, human, UniProt Q5FBB7 200-353, looked up)
chain: NSICQFDSLDDFETSHLAGKSFEFERVGFLDPLVNMHIPENVQHNACQWSKDQVNLSPKLIQPGTFTKTKEDILESKSEQTKSKQRDTQERKREEKRKANRRKSKRMSKYKENKSENKKTVPQKKMHKSVSSNDAYNFNLEEGVHLTPFRQKVS
As for B2, the binding result in test [2] is reported as “binds”.

B3: GST-Sgo1 fragment 280–353 (domain or fragment, human, UniProt Q5FBB7 280-353, looked up)
chain: TKSKQRDTQERKREEKRKANRRKSKRMSKYKENKSENKKTVPQKKMHKSVSSNDAYNFNLEEGVHLTPFRQKVS
For the molecule B3, the binding result in test [2] is listed as “binds”.

B4: GST-Sgo1 WT (241–387) (domain or fragment, human, UniProt Q5FBB7 241-387, looked up)
chain: VQHNACQWSKDQVNLSPKLIQPGTFTKTKEDILESKSEQTKSKQRDTQERKREEKRKANRRKSKRMSKYKENKSENKKTVPQKKMHKSVSSNDAYNFNLEEGVHLTPFRQKVSNDSNREENNESEVSLCESSGSGDDSDDLYLPTCK
B4: the binding result in test [1] and in test [2] was “binds” each time.

B5: GST-Sgo1 (241–387), Cdk1-phosphorylated (domain or fragment, human, UniProt Q5FBB7 241-387, looked up)
chain: VQHNACQWSKDQVNLSPKLIQPGTFTKTKEDILESKSEQTKSKQRDTQERKREEKRKANRRKSKRMSKYKENKSENKKTVPQKKMHKSVSSNDAYNFNLEEGVHLTPFRQKVSNDSNREENNESEVSLCESSGSGDDSDDLYLPTCK
modifications: phospho-Thr346 (Cdk1/cyclin B1; detected with antibody against Sgo1 pT346; how much was phosphorylated could not be measured)
Turning to B5, the binding result in test [3] and in test [4] was “binds” in each case.

B6: GST-Sgo1 fragment 115–353 (domain or fragment, human, UniProt Q5FBB7 115-353, looked up)
chain: QEICSSGMDPNSDDSSRNLFVKDLPQIPLEETELPGQGESFQIEDQIPTIPQDTLGVDFDSGEAKSTDNVLPRTVSVRSSLKKHCNSICQFDSLDDFETSHLAGKSFEFERVGFLDPLVNMHIPENVQHNACQWSKDQVNLSPKLIQPGTFTKTKEDILESKSEQTKSKQRDTQERKREEKRKANRRKSKRMSKYKENKSENKKTVPQKKMHKSVSSNDAYNFNLEEGVHLTPFRQKVS
In the case of B6, the binding result in test [2] is “binds”.

B7: GST-Sgo1 ΔCohesin (241–387 depleted of 313–353) (domain or fragment, human, UniProt Q5FBB7 241-387, looked up)
chain: VQHNACQWSKDQVNLSPKLIQPGTFTKTKEDILESKSEQTKSKQRDTQERKREEKRKANRRKSKRMSKYKENNDSNREENNESEVSLCESSGSGDDSDDLYLPTCK
With B7, the binding result in test [2] was “binds”.
